Measurements: a protein production outcome set (Wang et al. 2014)

Test: label from the status in PepcDB records

Sequence | protein production
MTRPYSLTRYAWLSIFVAIFTMAVKAAAYRVTGSVGLLSDALESIVNLSAAVVALAMLRLSAQPADARHHFGHGKAEYFASGFEGVLILVAAGAILFAAWDRYLHPHELAELDLGLGLSVAAAVVNGLVGWLLVSVGRKAGSIVLEADGKHLLTDVWTSIGVVCGVAAAGLTGWHDFDPGVAALVGLNIVWTGAGLIRRTIAGLLDASLPLEENLKIRGILETFRERGVGFHDLRTRQSGAHRFMSVHLLVPGAWTVQAAHDLAEEIEAELGGALANLTVVTHIEPIEDPASFGHHEPFPETAPEVTNPHPPQTARPLRLKIASVAGAALLLGGGVAGVVVSGVWLDLALAAVLFGFVLILAVQRRGGRQRKAGRQ | failed
MTRQRNREGLEFTAANAQAVEAFDETVKRYLQFHGDIGGALKATFAHDAQMPMALILRGYFYLLMGLRPLADKAAQLAAGLQPGRAALTEREQRHLDALACWSRDSLQAATEHWERIARAHPRDILAVKMAHFGYFYLGRSARIRDGIAQAIDSWSEDDALYPYMLSMMAFGQVEAGELARGEASGRRALELTPHDPWAVHAVAHALEPTDRKADALAWIARHERHWSEANNFRHHIHWHRALIHLEQGDAQAALDWYDRTVFAADSVEYLDVCNEASLLMRLELSGVDVGRRWEAVAQKSAARIDDQVMGFADVHYAMALCSSANPEHRQQAQALAERLERYSQGGTDNAQAYRQAVVPIVGALLAFRQGRYRESADALLACADVAHAAGGSHDQRDVYEYLTAEALFRAAPAHPDTIAYLARRSFRAPHNPHNWRLYLQSLEQSGQDRTLAAATARRQAAAHATA | failed
MTRSANPSLFLPLRAAWLALMRFQAKSGFVMSSHVAMSMMMALFPFILFTVALAGSLSQDLVTDDLIQLIFGTWPEQVATPIVAELKAVLAGANSRVMTVGGVLAVYFASNGVDAVREAMSRAYHDAETRPFWKTRLLCIAIVVGGGAIVLAVAAFEVVMPIYTRLVTDALPGAAPDWLSVERLSWIFVVAMPAGAVLACHALLPAGRHPLRRILPGVVLTLVLWAGCGWGFSLYIANFASYSTTYAGLAGAMAALIFLYLNAAILILGAEFNGALMDLSGGPD | not failed
MTRSEAQGRLTGLAPVSVIDIGSNSVRLVVYEGLSRAPAVLFNEKVLCGLGKGLALTGRMHEEGVTRALMALRRFHVLSEQAQAQKLYVLATAAAREAENGPDFIREAEAILGCEIEVLSGEKEALYSAYGVISGFYQPDGIAGDLGGGSLELIDIKDKSCGEGITLPLGGLRLSEQSDGSLEKAATIARKHVKSFAKLLAAGEGRTFYAVGGTWRNIAKLHMEISGYPLHMMQGYELPLEEMLNFLEEVIVSRDSKDPAWQAVSKNRRSLLPFGAIAMREVLRAMKPAKIAFSAQGVREGYLYSLLTEAERESDPLLVAADELAILRARSPEHARELADWSGRTFPVFGIDETEEESRYRQAACLLADISWRAHPDYRGLQALNIIAHSSFVAITHPGRAYIALANYYRFEGLNDNGTTEPLAAMAGERLQELGKLLGGLLRVVYLFSASMPGVVDHLKFRKSDNPDIDLEFVVPHDYCDFAGERLDGRLQQLAKLTGKRLAFVFE | not failed
MTRSRRGALARSSEGGPFPTADPVADRALCGWRVRSVIDLPELPLWTRDDRLPDVTIAFGRVTPVESASPGMNWHVVGEGRFRFTVASVGSYRISRGRVITIDPQAGVVASAVRQYLLGTAFGVLCHQRGLLPLHASCVAINGRAVAIAGASGAGKSSLAAALVRLGYPLLGDDVCVIDASEINAPHVLPAIPRLKLWRDVLDTFGLIVDPAARILEGIDKYQAQALADRPPPPPPQVPLPLGVVYYLDQAESPDDEGFHAIRGAERAAALAGAVYRRKMGLAMGLLPQIFTATMTVGALVPGHRLLRHGDLSGLDALARSVAARQEGRGLEHHHHHH | failed
MTRTTGTRTTGILADGAIRALFAGDKLKSEADLDVDQVQPASLDLRLGSKAYRVRASFMPGPGTRVIDKLNRFSLHEVDLSQGAVLETGCVYIVPLMESLALPADMSASANPKSSTGRLDIFTRVMTDNAQEFDKIPAGYTGPLYLEISPRTFPIVVRRGSRLSQIRFRIGHALLNESEVLKLHETETLVASENPNVTGGGIALSIDLKGFGENGLIGYRGKHHTAVVDVDKKAQHDVLDFWEPLFARGRAELILDPDEFYILVSREAVHVPPLYAAEMTPFDPLVGEFRVHYAGFFDPGFGHAQAGGTGSRAVLEVRSHEVPFILEHGQIVGRLVYEHMLEKPEGLYGTGLGSNYQAQGLKLSKHFRAE | not failed
MTRVKSKLDEELSSPWFYTVCTMGGMLSAGTTHLAITPLDVLKVNMQVNPVKYNSIPSGFSTLLREHGHSYLWRGWSGKLLGYGVQGGCRFGLYEYFKTLYSDVLPNHNRTSIYFLSSASAQIFADMALCPFEAIKVRVQTQPMFAKGLLDGFPRVYRSEGLAGFHRGLFPLWCRNLPFSMVMFSTFEQSVEFIYQKIIQKRKQDCSKAQQLGVTCLAGYTAGAVGTIISNPADVVLSSLYNNKAKNVLQAVRNIGFVGLFTRSLPVRITIVGPVITLQWFFYDAIKVLSGFPTSGGVKKPVDAAKLSV | failed
MTRVLYCGDTSLETAAGYLAGLMTSWQWEFDYIPSHVGLDVGELLAKQDLVILSDYPAERMTAQAIDQLVTMVKAGCGLVMLGGWESYHGLGGNWDQTLLAEVLPVDIKSADDRINFDQPTLAIPAAINSVSHPILQNLPWEDRPPTIGGLNRIAAKAKAQTLLMARVWRPTFSLEHGKTTWEHADHHPLLVVGEAGTGRVAAFASDVAPHWVGGLVDWGDERVTSQAPGAGAIEVGNLYSQFFRQMLEWVAKSTR | not failed
MTSAAQLTALLHLASPALPVGAFSYSQGLEAAVEARHVHDEASAARWIAEGLAVLAACEAPLWLLQYADWQAGRLDAVAERDGWFLATRETRELRLETAQMGWSLARLIAQMGWGAPAMRDALAARAAITFPTAFAAAAVALGIEARDGLTAYSFAWVENQVAAAVKAIPLGQAAGQRILFGLHAAVGQAAEDAARRAACHPPELSTFSPGLGVLSARHETQYSRLFRSLEHHHHHH | failed
MTSAQAVSEGTGEAAAQAISLRTWVAVLGSVVGCFMAGMNVHVTNASLPDVRGSLGATFEEGSWITTAYLVAEIIIIPMTGWLVSVFSMRRVLMVGTAGFVLFSIACSLAPNIHSLIFARVLQGAFGGVLIPLSFQLIVTELPAARHPMGMALFAVANNVAQAAGPSLGGWLTDAYSWRWIFYLQVPPGLLLLAAIGWSVRPQPMVLAKLRQGDWGGIASMAVGLSALQIMLEEGGRYDWFASSFISHCAILATVGLLAFVAIELRREQPLINLRLLGRYNFGIASLMQFTFGAVVFGVVFLVPNYFAQIHGYNARQIGLMMIPYGLIQFVMSFATPRLMRWTSARTIIIAGFAITGIGCLMNIHLNPDASVNVIVPSLVVRGIGQSLVVVALGVMAIQGLEKDQVGSASGLFSMVRNVGGAIGIALSSQIVVEREKLHAQRIGESVSLFAQATQERLVELVRLLAQAPVEYATALHSAALAPLRQQALGMVDKVLHRDALLLAYSDAFLLAGLAMLLCVVAGVLLRRA | failed
MTSDIKAILEQVVISPDVPIAEAIAQLDRAGTGSLVVCSADKKLYGLLTDGDVRRALLKAVDMGAPCGDIANRKPVITFVPLLPIEALRLMNHHDINHLPVLDAEGRVVDFLLRRDLVAEDELAARARRRLDSVVIPCSASIAEAIAQLDRAGTGALVLCSEGDRLHGLLTDGDIRRAVLRGISLDAPCQDVASRRPVTVEPSFSAAQALHLMNQHDINHLPVVDDTGRVVDFLLRRDLIADDQLNLSAVVMAGGYGKRLLPLTEQVPKPMLPVGDRPLLERTIDQLRRSGIREVNLTTHYLPDSIVEHFGDGDSFGVKLNYLKEDHPLGTAGGLKLMKKASDPFLVMNGDILTGVPFQEMFAYHRKNGAEITVGVRKYEVQVPFGVVECDDVRITGLKEKPSLTFFINAGIYLLEPSVCDLIPEGERFDMTDLIQKLLDEGRSVVSFPIMEYWLDVGRHEDYQKAQEDVRSGKIQLEHHHHHH | failed
MTSDQPIRWGIIGPGTIARTFADGVAHSRTGKLVAIATRNPSKPGLAENFPGARIVNGYEALLSDPEVDAVYISVPHTGHAEWAIKAARAGKHILVEKPIALSAYDAEAVYYEAKKAGVFAGEAFMYRVHPQTEKLVELIKSGVIGTLRIIRSSFGFNMGSYRPEHRLFANDTAGGGILDVGGYPVSMARLIAGAAEGKAFLDPEKVSGVAHLGESGVDEWASAVLKFPNEIIAEVSCSIMAQQDNVLRIIGSEGRIEVADFWFASGHKGGVGKIEIFKGGKQETIEVKEERWLYSFEADAAGDAIRAGRTEFSAPGMGWTDSIANLRVLDQWRASVGLEYGVEKAAKRTNNIAGGAVTRGNSIRQRQIPGISKPASVVTLGFEFFPNFAAASLTLDAFYEAGGNAFDTAYVYGAGKTEAIFGDWHTSRNVPREEIVLIGKGAHSPLCYPDMIAKQLDQSLARLKTDYVDIYFMHRDNTDVPVGEFVDAMDAEVKRGRIRGIFGGSNWTRARFDEAIAYAEKNGKTAPAALSNNFSLAEMLDPIWAGCVAASDDDWKKWLNEKQIPNFAWSSQGRGFFTDRAGRDKRDDEEIVRVWYSERNFGRRDRAIELANKLGRNPIHIALAYVIAQPFPVIPLIGPRTVAELEDSLSALDIRLTPDEVKWLEG | failed
MTSITPVTLANCEDEPIHVPGAIQPHGALVTLRADGMVLAASENIQALLGFVASPGSYLTQEQVGPEVLRMLEEGLTGNGPWSNSVETRIGEHLFDVIGHSYKEVFYLEFEIRTADTLSITSFTLNAQRIIAQVQLHNDTASLLSNVTDELRRMTGYDRVMAYRFRHDDSGEVVAESRREDLESYLGQRYPASDIPAQARRLYIQNPIRLIADVAYTPMRVFPALNPETNESFDLSYSVLRSVSPIHCEYLTNMGVRASMSISIVVGGKLWGLFSCHHMSPKLIPYPVRMSFQIFSQVCSAIVERLEQGRIAELLRVSTERRLALARRARDADDLFGALAHPDDGIAALIPCDGALVMLGGRTLSIRGDFERQAGNVLQRLQRDPERDIYHTDNWPQPSEDSPDGGDCCGVLAIRFHRQESGWIFWFRHEEVHRIRWGGKPEKLLTIGPSGPRLTPRGSFEAWEEVVRGHSTPWSETDLAIAEKLRLDLMELCLNHAAEVDRMRQRLIAVLGHDLRNPLQSISMAAALLSSSDTRTTELRQHISASSSRMERLVSQILDMSRLQSGIGLTVNPVDTDVSQLVRQIVCETDVAYPGLVIEIAIDPQVRAVVDPDRYAQVAANLLSNARHHGLPGRPVLVTLTRQGDEVCLSVLNETSGLSEAQLANLFEPFKRESADNQRNRNGLGIGLYISQAIAQAHQGRIDVDCRDDVITFCLRLPVRQAETGSSS | failed
MTSLPTSLLGDLDPTSDRAVFRQIADQLREAIDRGRFKEGEKLPSEAELVEHYGVSRMTVRNSFSILQGEGLVHAEHGKGVFVRPRPPVRRLASDRFARRHREQGKSAFIVEADAAGSHPQVDSLEVKEEKASQDISTRLGSVRRVLARRRRYLLDGRPVEFATSYLPLDIARDTPIAEPNPGPGGIYARLEELGHRLDHFEEEIRARMPSPSEVKTLRLASGVPVIHLIRTAYDTEGRAVEVCDTVMAADAYVLSYQLPAT | failed
MTSLSSKRVAETLDKLHAEAEAADRALMAEMMAQAERSGETLKDLAAKFVDEERLNYRTTYQEHADHFLAISSAYGRFLYAIARARRATRIVEFGTSMGISTIYLAAALRDNGGGRLIGSEIEPTKVARARAHLEATGLADLVDIREGDALDTLKDVGCEVDILSIDGAFSLYLPVLKLIEPRLTPGAVILGENAFAQDYLDYVRAPANGYFSRSLDIDEGRGNEFTVRVG | failed
MTSPASCSPPNEKRTGSPFPPESRSLPSTMEMTMNTIFRPAPHPLPDAPFYTPLGNECVLFESAWVRQLPLLLKGPTGCGKTRFVSHMAAKLGLPLSTISCHDDLAAADLTGRYLLKGGETVWMDGPLTRSVRQGGICYLDEIVEARKDVAVVLHPLTDDRRILPLERTGEVLEAPSGFMLVVSYNPGYQNLLKSLKPSTRQRFVAIEFDFLPKEQEIAVVSHESGLDARDVEPLVDLAHRLRGLKGHDLEEGVSTRLLVYCASLIDTGLPARQAVRATMIEPLTDEPDVKAALHEVADAIIRLEHHHHHH | failed
